# Source: article PMC3374333 (Nature neuroscience, 2012)
# Biological target: the molecule itself
# Assay: SEC
protein,measurement,value
"GBR1bVFT (Venus Flytrap module of the extracellular domain of human GABAB receptor subunit GBR1b) (domain or fragment, UniProt Q9UBS5-2 30-459, looked up) SHSPHLPRPHSRVPPHPSSERRAVYIGALFPMSGGWPGGQACQPAVEMALEDVNSRRDILPDYELKLIHHDSKCDPGQATKYLYELLYNDPIKIILMPGCSSVSTLVAEAARMWNLIVLSYGSSSPALSNRQRFPTFFRTHPSATLHNPTRVKLFEKWGWKKIATIQQTTEVFTSTLDDLEERVKEAGIEITFRQSFFSDPAVPVKNLKRQDARIIVGLFYETEARKVFCEVYKERLFGKKYVWFLIGWYADNWFKIYDPSINCTVDEMTEAVEGHITTEIVMLNPANTRSISNMTSQEFVEKLTKRLKRHPEETGGFQEAPLAYDAIWALALALNKTSGGGGRSGVRLEDFNYNNQTITDQIYRAMNSSSFEGVSGHVVFDASGSRMAWTLIEQLQGGSYKKIGYYDSTKDDLSWSKTDKWIGGSPPAD",stoichiometry N,2
